Experimental data taken from PMC10022797, “Role of Nesprin-2 and RanBP2 in BICD2-associated brain developmental disorders” (PLOS Genetics, 2023).
Substitutions are numbered along the chain they refer to. Names may count otherwise.

B1: BICD2-CC3 (aa 711–800), His6-tagged (domain or fragment, mouse, UniProt Q921C5-1 711-800, looked up)
chain: YENEKAMVTETMMKLRNELKALKEDAATFSSLRAMFATRCDEYITQLDEMQRQLAAAEDEKKTLNSLLRMAIQQKLALTQRLELLELDHE
notes: also called Ms BICD2-CC3; source: E. coli LOBSTR-BL21(DE3)-RIL, purified (Ni-NTA)
B2: BICD2-CC3 (residues 711–800), His6 tag removed (domain or fragment, mouse, UniProt Q921C5-1 711-800, looked up)
chain: B1 chain
B3: GST-tagged RanBP2 fragment (BICD2 binding domain, aa 2148–2240), on glutathione Sepharose (domain or fragment, human, UniProt P49792 2148-2240, looked up)
chain: DIPLQTPHKLVDTGRAAKLIQRAEEMKSGLKDFKTFLTNDQTKVTEEENKGSGTGAAGASDTTIKPNPENTGPTLEWDNYDLREDALDDSVSS
notes: GST fusion from the pGEX-6P-1 vector; also called GST-RanBP2; BBD; source: E. coli, purified on glutathione Sepharose, not eluted
B4: GST-His6-BICD2-CT (aa 630–820) wildtype, Q921C5-1 T699M (protein)
chain: IRDQIKHLQAAVDRTTELSRQRIASQELGPAVDKDKEALMEEILKLKSLLSTKREQITTLRTVLKANKQMAEVALANLKSKYENEKAMVTETMMKLRNELKALKEDAATFSSLRAMFATRCDEYITQLDEMQRQLAAAEDEKKTLNSLLRMAIQQKLALTQRLELLELDHEQTRRGRSKAASKAKPASPSL
B5: GST-His6-BICD2-CT (aa 630–820) wildtype, Q921C5-1 L679R (protein)
chain: B4 chain with L50R, M70T

Key:
[1] = molecular target: GST-His6-BICD2-CT (aa 630–820) E770G (mouse) (UniProt Q921C5); assay: pull-down; GST-His6-BICD2-CT WT or mutant on glutathione magnetic beads, incubated 3 hrs at 4°C with untransfected or GFP-Nesprin-2 expressing HeLaM lysate (RIPA buffer); immunoblot with anti-RanBP2, anti-GFP and anti-GST, signal ratio normalised to wildtype
[2] = molecular target: GST-tagged Nesprin-2 fragment (N2G SR 52–56), on glutathione Sepharose (mouse) (UniProt Q6ZWQ0); assay: pull-down; GST-RanBP2 or GST-Nesprin-2 held on glutathione Sepharose (not eluted), purified His6-tagged BICD2 fragment added to the column, washed, eluted; Coomassie-stained SDS-PAGE, bands quantified (3 sets)
[3] = molecular target: Purified Nesprin-2 fragment (N2G SR 52–56), used in size exclusion chromatography (mouse) (UniProt Q6ZWQ0); assay: SEC; pairwise mixtures, Nesprin-2 or RanBP2 with BICD2-CC3 WT or mutant at 1:2; 1.3 mg Nesprin-2, 0.2 mg RanBP2, 0.4 mg BICD2-CC3; Superdex 200 Increase 10/300 GL; 20 mM HEPES pH 7.5, 150 mM NaCl, 0.5 mM TCEP; bands quantified (Fig 6C-6G, S3, S6)
[4] = molecular target: T1, RanBP2 fragment (aa 2148–2240), GST cleaved (human, UniProt P49792 2148-2240); assay: SEC; competition: Nesprin-2, RanBP2 and BICD2-CC3 WT or mutant mixed at 1:1:2 molar ratio; Superdex 200 Increase 10/300 GL; 20 mM HEPES pH 7.5, 150 mM NaCl, 0.5 mM TCEP (Fig 6L, 6M, S3I, S3J); conditions: both partners purified
T1 construct: expressed as GST fusion from the pGEX-6P-1 vector; also called Hs RanBP2 (aa 2148–2240); BBD

[5] = molecular target: B3; assay: pull-down; GST-RanBP2 or GST-Nesprin-2 held on glutathione Sepharose (not eluted), purified His6-tagged BICD2 fragment added to the column, washed, eluted; Coomassie-stained SDS-PAGE, bands quantified (3 sets); conditions: both partners purified
[6] = molecular target: T1, RanBP2 fragment (aa 2148–2240), GST …; assay: SEC; pairwise mixtures, equimolar; Superdex 200 Increase 10/300 GL; 20 mM HEPES pH 7.5, 150 mM NaCl, 0.5 mM TCEP, 1 mM MgCl2; 1.3 mg Nesprin-2, 0.2 mg RanBP2, 0.2 mg BICD2-CC3; fractions on SDS-PAGE (Fig 2D, 2E); conditions: both partners purified
BICD2 aa 630–800 = molecular target: T2, BICD2 aa 630–800 (mouse, UniProt Q921C5-1 630-800); assay: pull-down; GST-RanBP2 or GST-Nesprin-2 held on glutathione Sepharose (not eluted), purified His6-tagged BICD2 fragment added to the column, washed, eluted; Coomassie-stained SDS-PAGE, bands quantified (3 sets); conditions: both partners purified
T2 construct: Bicd2 (Bicaudal D2), mouse, aa 630–800, contains the entire predicted CC3 domain; cloned into pet28a (NdeI, XhoI); also called Ms BICD2 aa 630–800
T2 sequence (looked up): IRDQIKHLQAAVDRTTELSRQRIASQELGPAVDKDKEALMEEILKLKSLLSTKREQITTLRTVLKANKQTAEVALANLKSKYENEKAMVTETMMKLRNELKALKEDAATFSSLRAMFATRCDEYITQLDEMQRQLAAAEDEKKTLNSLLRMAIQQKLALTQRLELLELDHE

[7] = molecular target: GFP tagged Nesprin-2 fragment (GFP-N2G SR), Q6ZWQ0; assay: GST pull-down with immunoblot quantification; conditions: chain shown with the change; GFP-Nesprin-2 expressing HeLaM cell lysate; n = 3; parent: est. 1.0; read off a plot

“GFP tagged Nesprin-2 fragment (GFP-N2G SR) (from UniProt Q6ZWQ0 1-6874) (domain or fragment)” was tested, and the fold change in GFP-Nesprin-2 binding against wildtype BICD2-CT [1] was 6 fold.

“BICD2 aa 750–800 (from UniProt Q921C5-1 750-800) (domain or fragment)” showed an amount of bound molecules compared to the longer fragments (aa 630–800 and 711–800) [2] of 73%.

For “BICD2-CC3 (aa 711–800), His6-tagged (from UniProt Q921C5-1 711-800) (domain or fragment)”, the percent of BICD2-CC3 that co-elutes with Nesprin-2 [3] was 23%.

Work on “BICD2-CC3 (aa 711–800) F739I/R743C (from UniProt Q921C5-1 711-800) (domain or fragment)” yielded a percent of BICD2-CC3 that co-elutes with Nesprin-2 [3] of 94%.

B1: binds [4]; binds [5].

B2: binds [6].

B3: binds (BICD2 aa 630–800).

With B4 the ratio to parent [7] was 0.53.

B5 gave a ratio to parent [7] of 2.7.
